By stoichiometry N is commonly meant a count of units in the complex or per binding partner.

The target in the test is Flag-CCDC74B wild-type (in HeLa cells) (human). As to the kind of experiment: cross-linking; HeLa cells expressing Flag-CCDC74B treated with 1 mM disuccinimidyl suberate (DSS) in DMSO for 30 min; anti-Flag Western blot.

For the substance “Flag-CCDC74B wild-type (in HeLa cells) (natural protein)”, the stoichiometry N was determined as 2.

(Values after paper PMC6744678.)
